{"source": "paper PMC4709122", "about": "(Nature structural & molecular biology, 2015)", "binders": {"B1": {"name": "Alexa488-labeled CysZNF451(2–56) (domain or fragment)", "chain": "CGDPGSEIIESVPPAGPEASESTTDENEDDIQFVSEGPLRPVLEYIDLVSSDDEEP", "modifications": "Alexa488-maleimide on the single engineered N-terminal cysteine"}}, "assay_in_all_cases": "fluorescence polarisation", "key": {"[1]": {"target": "UBC9 (human SUMO E2, untagged) (human, UniProt P63279 1-158)", "sequence (P63279 whole entry)": "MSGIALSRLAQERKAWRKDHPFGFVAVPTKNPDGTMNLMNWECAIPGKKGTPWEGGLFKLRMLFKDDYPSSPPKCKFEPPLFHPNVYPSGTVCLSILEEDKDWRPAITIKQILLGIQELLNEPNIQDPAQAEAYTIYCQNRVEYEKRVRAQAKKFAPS"}, "[2]": {"target": "UBC9–SUMO2^B non-covalent complex (human, UniProt P63279;P61956)"}, "[3]": {"target": "SUMO2 (construct not stated for this experiment) (human, UniProt P61956 1-95)"}}, "data": [{"binder": "B1", "values": [{"measurement": "Kd", "setting": "[1]", "result": "10 to 16", "unit": "µM"}, {"measurement": "Kd", "setting": "[2]", "result": 2, "unit": "µM"}, {"measurement": "Kd", "setting": "[3]", "result": "120 to 150", "unit": "µM"}]}]}
